Assay results reported in paper PMC11497264, “SARS‐CoV‐2 Spike Protein‐Derived Cyclic Peptides as Modulators of Spike Interaction with GRP78” (Chembiochem, 2024).
Bridge positions count the residues as written; N and C are the ends.

Target: T1, human glucose-regulated protein GRP78 (human, UniProt P11021 19-654)
T1 construct: also called heat shock protein A5; HSPA5; source: Escherichia coli, recombinant; bought: Abcam
Test: SPR
Settings: both partners purified

T1 sequence (P11021 19-654): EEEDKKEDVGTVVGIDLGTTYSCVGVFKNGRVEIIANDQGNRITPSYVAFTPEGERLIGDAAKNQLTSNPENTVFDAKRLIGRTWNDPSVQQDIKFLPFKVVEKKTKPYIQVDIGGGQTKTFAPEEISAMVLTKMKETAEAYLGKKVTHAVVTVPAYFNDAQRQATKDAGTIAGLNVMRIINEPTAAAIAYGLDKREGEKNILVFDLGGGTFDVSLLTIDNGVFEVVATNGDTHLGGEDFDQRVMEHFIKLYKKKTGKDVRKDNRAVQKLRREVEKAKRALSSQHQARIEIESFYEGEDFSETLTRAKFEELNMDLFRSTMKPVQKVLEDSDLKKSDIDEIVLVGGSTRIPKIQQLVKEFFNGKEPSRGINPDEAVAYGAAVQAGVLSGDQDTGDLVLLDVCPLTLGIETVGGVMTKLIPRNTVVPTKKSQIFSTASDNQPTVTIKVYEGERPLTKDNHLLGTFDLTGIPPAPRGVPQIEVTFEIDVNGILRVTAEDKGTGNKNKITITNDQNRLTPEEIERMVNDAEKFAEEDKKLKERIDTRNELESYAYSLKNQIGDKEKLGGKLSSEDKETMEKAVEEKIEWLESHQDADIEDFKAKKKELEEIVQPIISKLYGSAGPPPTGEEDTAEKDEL

B1: LCP W, loop-derived cyclic peptide based on spike residues 480-488 of the Wuhan strain (peptide)
peptide: H-CNGVEGFNC-NH2
modifications: disulfide 1-9
SMILES: CC(C)[C@@H]1NC(=O)CNC(=O)[C@H](CC(N)=O)NC(=O)[C@@H](N)CSSC[C@@H](C(N)=O)NC(=O)[C@H](CC(N)=O)NC(=O)[C@H](Cc2ccccc2)NC(=O)CNC(=O)[C@H](CCC(=O)O)NC1=O
notes: also called Wuhan loop peptide; Wuhan peptide
IC50: 763 nM

B2: LCP O, loop-derived cyclic peptide based on spike residues 480-488 of the Omicron strain (peptide)
peptide: H-CNGVAGFNC-NH2
modifications: disulfide 1-9
SMILES: CC(C)[C@@H]1NC(=O)CNC(=O)[C@H](CC(N)=O)NC(=O)[C@@H](N)CSSC[C@@H](C(N)=O)NC(=O)[C@H](CC(N)=O)NC(=O)[C@H](Cc2ccccc2)NC(=O)CNC(=O)[C@H](C)NC1=O
notes: also called Omicron loop peptide; Omicron peptide
IC50: 693 nM | Kd: 2000 nM
